Test results published in patent US20050152888A1.

Target: Rpn10 proteasome subunit C-terminally fused with Fpr1 (strain Rpn10-FPR1) (S. cerevisiae) (UniProt P38886)
Assay: cell-based or functional assay

Chain of Rpn10 proteasome subunit C-terminally fused with Fpr1 (strain Rpn10-FPR1) (S. cerevisiae) (P38886 other isoform, or with tags, fused parts or gaps): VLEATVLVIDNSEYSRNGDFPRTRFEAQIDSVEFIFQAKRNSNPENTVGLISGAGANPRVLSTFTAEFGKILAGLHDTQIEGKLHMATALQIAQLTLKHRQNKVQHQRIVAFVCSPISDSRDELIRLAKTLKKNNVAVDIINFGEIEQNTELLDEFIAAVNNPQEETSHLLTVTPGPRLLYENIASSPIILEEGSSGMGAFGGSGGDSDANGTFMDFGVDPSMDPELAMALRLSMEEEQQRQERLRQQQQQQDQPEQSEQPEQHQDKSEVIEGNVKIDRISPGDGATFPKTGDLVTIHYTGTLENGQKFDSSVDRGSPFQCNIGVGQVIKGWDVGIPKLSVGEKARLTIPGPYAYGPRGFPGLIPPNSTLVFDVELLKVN

## HA epitope-tagged Tor-His3 purified from a bacterial expression system (PROTet.e133-TOR-link-HIS3HA) (from UniProt P35169 1883-2078; P06633 1-220)
  half-life of reporter degradation in vitro with purified proteasomes and rapamycin (anti-HA Western): 15 min
